Measured values: publication PMC3356575

Experiments:
Assay type in all cases: biochemical, Bacteroides thetaiotaomicron
Details in all cases: 50 mM HEPES pH 7.0, 5 mM MgCl2, 37 °C
purified protein = substrate: O=[N+]([O-])c1ccc(OP(=O)(O)O)cc1; test: purified protein
[1] = substrate: O=P(O)(O)OC[C@H]1O[C@@](CO)(O[C@H]2O[C@H](CO)[C@@H](O)[C@H](O)[C@H]2O)[C@@H](O)[C@@H]1O; test: initial rates, phosphate release
[2] = substrate: Cc1ncc(COP(=O)(O)O)c(C=O)c1O; test: initial rates, phosphate release
[3] = substrate: O=P(O)(O)OC[C@H]1O[C@H](O[C@H]2O[C@H](CO)[C@@H](O)[C@H](O)[C@H]2O)[C@H](O)[C@@H](O)[C@@H]1O; test: initial rates, phosphate release
[4] = substrate: O=P(O)(O)OC[C@@H](O)[C@@H](O)[C@H](O)[C@@H](O)CO; test: initial rates, phosphate release
[5] = substrate: O=P(O)(O)OCC(O)CO; test: initial rates, phosphate release
[6] = substrate: Nc1ncnc2c1ncn2[C@@H]1O[C@H](COP(=O)(O)OP(=O)(O)O)[C@@H](O)[C@H]1O; test: initial rates, phosphate release

B1: BT1666 (Bacteroides thetaiotaomicron VPI-5482) (protein)
chain: MIKVLLLDVDGTLLSFETHKVSQSSIDALKKVHDSGIKIVIATGRAASDLHEIDAVPYDGVIALNGAECVLRDGSVIRKVAIPAQDFRKSMELAREFDFAVALELNEGVFVNRLTPTVEQIAGIVEHPVPPVVDIEEMFERKECCQLCFYFDEEAEQKVMPLLSGLSATRWHPLFADVNVAGTSKATGLSLFADYYRVKVSEIMACGDGGNDIPMLKAAGIGVAMGNASEKVQSVADFVTDTVDNSGLYKALKHFGVI
- Km (purified protein): 0.51 ± 0.1 mM
- kcat (purified protein): 0.055 ± 0.007 s⁻¹
- kcat/Km (purified protein): 110 M⁻¹ s⁻¹
- Km [1]: 1.4 ± 0.3 mM
- kcat [1]: 0.11 ± 0.01 s⁻¹
- kcat/Km [1]: 79 M⁻¹ s⁻¹
- Km [2]: 4.1 ± 0.5 mM
- kcat [2]: 0.29 ± 0.01 s⁻¹
- kcat/Km [2]: 70 M⁻¹ s⁻¹
- Km [3]: 2.2 ± 0.4 mM
- kcat [3]: 0.3 ± 0.03 s⁻¹
- kcat/Km [3]: 140 M⁻¹ s⁻¹
- Km [4]: 6.5 ± 3 mM
- kcat [4]: 0.42 ± 0.06 s⁻¹
- kcat/Km [4]: 65 M⁻¹ s⁻¹
- Km [5]: 5.3 ± 0.7 mM
- kcat [5]: 0.42 ± 0.03 s⁻¹
- kcat/Km [5]: 79 M⁻¹ s⁻¹
- Km [6]: 1.0 (± 2) × 10^1 mM
- kcat [6]: 0.45 ± 0.06 s⁻¹
- kcat/Km [6]: 45 M⁻¹ s⁻¹
